Numbered stars: 1 amine (or outer) side, 2 acyl side, 3 side chain; on linkers, the order of the positions; unused ones are H or OH. Bridge positions count the residues as written; N and C are the ends. Square brackets hold non-standard residues; d marks the D form. Side chains are listed from the residue outwards. Ends that are not written are not given here. * marks the point of attachment. C18 diacid = O=C(O)CCCCCCCCCCCCCCCCC(=O)*; γGlu = O=C(O)[C@H](CCC(=O)[*:2])N[*:1]; Aib = CC(C)(N)C(=O)O

The labels stand for the following.
B1: Peptide 137 (SEQ ID NO: 137) (peptide)
peptide: K([γGlu-C18 diacid])KCNTATCATQRLANFL[Aib]HSSRNFGPILPPTNVGSNTY-NH2
modifications: disulfide 3-8; N-terminus assumed
SMILES: CC[C@H](C)[C@H](NC(=O)[C@@H]1CCCN1C(=O)CNC(=O)[C@H](Cc1ccccc1)NC(=O)[C@H](CC(N)=O)NC(=O)[C@H](CCCNC(=N)N)NC(=O)[C@H](CO)NC(=O)[C@H](CO)NC(=O)[C@H](Cc1c[nH]cn1)NC(=O)C(C)(C)NC(=O)[C@H](CC(C)C)NC(=O)[C@H](Cc1ccccc1)NC(=O)[C@H](CC(N)=O)NC(=O)[C@H](C)NC(=O)[C@H](CC(C)C)NC(=O)[C@H](CCCNC(=N)N)NC(=O)[C@H](CCC(N)=O)NC(=O)[C@@H](NC(=O)[C@H](C)NC(=O)[C@@H]1CSSC[C@H](NC(=O)[C@H](CCCCN)NC(=O)[C@@H](N)CCCCNC(=O)CC[C@H](NC(=O)CCCCCCCCCCCCCCCCC(=O)O)C(=O)O)C(=O)N[C@@H](CC(N)=O)C(=O)N[C@@H]([C@@H](C)O)C(=O)N[C@@H](C)C(=O)N[C@@H]([C@@H](C)O)C(=O)N1)[C@@H](C)O)C(=O)N[C@@H](CC(C)C)C(=O)N1CCC[C@H]1C(=O)N1CCC[C@H]1C(=O)N[C@H](C(=O)N[C@@H](CC(N)=O)C(=O)N[C@H](C(=O)NCC(=O)N[C@@H](CO)C(=O)N[C@@H](CC(N)=O)C(=O)N[C@H](C(=O)N[C@@H](Cc1ccc(O)cc1)C(N)=O)[C@@H](C)O)C(C)C)[C@@H](C)O
B2: Peptide 136 (SEQ ID NO: 136) (peptide)
peptide: K([γGlu-C18 diacid])KCNTATCATQRLANFL[Aib]HSSNNFGPILPPTNVGSNTP-NH2
modifications: disulfide 3-8; N-terminus assumed
SMILES: CC[C@H](C)[C@H](NC(=O)[C@@H]1CCCN1C(=O)CNC(=O)[C@H](Cc1ccccc1)NC(=O)[C@H](CC(N)=O)NC(=O)[C@H](CC(N)=O)NC(=O)[C@H](CO)NC(=O)[C@H](CO)NC(=O)[C@H](Cc1c[nH]cn1)NC(=O)C(C)(C)NC(=O)[C@H](CC(C)C)NC(=O)[C@H](Cc1ccccc1)NC(=O)[C@H](CC(N)=O)NC(=O)[C@H](C)NC(=O)[C@H](CC(C)C)NC(=O)[C@H](CCCNC(=N)N)NC(=O)[C@H](CCC(N)=O)NC(=O)[C@@H](NC(=O)[C@H](C)NC(=O)[C@@H]1CSSC[C@H](NC(=O)[C@H](CCCCN)NC(=O)[C@@H](N)CCCCNC(=O)CC[C@H](NC(=O)CCCCCCCCCCCCCCCCC(=O)O)C(=O)O)C(=O)N[C@@H](CC(N)=O)C(=O)N[C@@H]([C@@H](C)O)C(=O)N[C@@H](C)C(=O)N[C@@H]([C@@H](C)O)C(=O)N1)[C@@H](C)O)C(=O)N[C@@H](CC(C)C)C(=O)N1CCC[C@H]1C(=O)N1CCC[C@H]1C(=O)N[C@H](C(=O)N[C@@H](CC(N)=O)C(=O)N[C@H](C(=O)NCC(=O)N[C@@H](CO)C(=O)N[C@@H](CC(N)=O)C(=O)N[C@H](C(=O)N1CCC[C@H]1C(N)=O)[C@@H](C)O)C(C)C)[C@@H](C)O
B3: Peptide 138 (SEQ ID NO: 138) (peptide)
peptide: K([γGlu-C18 diacid])KCNTATCATQRLANFL[Aib]HSSPNFGPILPPTEVGSNTY-NH2
modifications: disulfide 3-8; N-terminus assumed
SMILES: CC[C@H](C)[C@H](NC(=O)[C@@H]1CCCN1C(=O)CNC(=O)[C@H](Cc1ccccc1)NC(=O)[C@H](CC(N)=O)NC(=O)[C@@H]1CCCN1C(=O)[C@H](CO)NC(=O)[C@H](CO)NC(=O)[C@H](Cc1c[nH]cn1)NC(=O)C(C)(C)NC(=O)[C@H](CC(C)C)NC(=O)[C@H](Cc1ccccc1)NC(=O)[C@H](CC(N)=O)NC(=O)[C@H](C)NC(=O)[C@H](CC(C)C)NC(=O)[C@H](CCCNC(=N)N)NC(=O)[C@H](CCC(N)=O)NC(=O)[C@@H](NC(=O)[C@H](C)NC(=O)[C@@H]1CSSC[C@H](NC(=O)[C@H](CCCCN)NC(=O)[C@@H](N)CCCCNC(=O)CC[C@H](NC(=O)CCCCCCCCCCCCCCCCC(=O)O)C(=O)O)C(=O)N[C@@H](CC(N)=O)C(=O)N[C@@H]([C@@H](C)O)C(=O)N[C@@H](C)C(=O)N[C@@H]([C@@H](C)O)C(=O)N1)[C@@H](C)O)C(=O)N[C@@H](CC(C)C)C(=O)N1CCC[C@H]1C(=O)N1CCC[C@H]1C(=O)N[C@H](C(=O)N[C@@H](CCC(=O)O)C(=O)N[C@H](C(=O)NCC(=O)N[C@@H](CO)C(=O)N[C@@H](CC(N)=O)C(=O)N[C@H](C(=O)N[C@@H](Cc1ccc(O)cc1)C(N)=O)[C@@H](C)O)C(C)C)[C@@H](C)O
B4: Peptide 135 (SEQ ID NO: 135) (peptide)
peptide: K([γGlu-C18 diacid])KCNTATCATQRLANFL[Aib]HSSNHFGPILPPTNVGSNTY-NH2
modifications: disulfide 3-8; N-terminus assumed
SMILES: CC[C@H](C)[C@H](NC(=O)[C@@H]1CCCN1C(=O)CNC(=O)[C@H](Cc1ccccc1)NC(=O)[C@H](Cc1c[nH]cn1)NC(=O)[C@H](CC(N)=O)NC(=O)[C@H](CO)NC(=O)[C@H](CO)NC(=O)[C@H](Cc1c[nH]cn1)NC(=O)C(C)(C)NC(=O)[C@H](CC(C)C)NC(=O)[C@H](Cc1ccccc1)NC(=O)[C@H](CC(N)=O)NC(=O)[C@H](C)NC(=O)[C@H](CC(C)C)NC(=O)[C@H](CCCNC(=N)N)NC(=O)[C@H](CCC(N)=O)NC(=O)[C@@H](NC(=O)[C@H](C)NC(=O)[C@@H]1CSSC[C@H](NC(=O)[C@H](CCCCN)NC(=O)[C@@H](N)CCCCNC(=O)CC[C@H](NC(=O)CCCCCCCCCCCCCCCCC(=O)O)C(=O)O)C(=O)N[C@@H](CC(N)=O)C(=O)N[C@@H]([C@@H](C)O)C(=O)N[C@@H](C)C(=O)N[C@@H]([C@@H](C)O)C(=O)N1)[C@@H](C)O)C(=O)N[C@@H](CC(C)C)C(=O)N1CCC[C@H]1C(=O)N1CCC[C@H]1C(=O)N[C@H](C(=O)N[C@@H](CC(N)=O)C(=O)N[C@H](C(=O)NCC(=O)N[C@@H](CO)C(=O)N[C@@H](CC(N)=O)C(=O)N[C@H](C(=O)N[C@@H](Cc1ccc(O)cc1)C(N)=O)[C@@H](C)O)C(C)C)[C@@H](C)O
B5: Peptide 134 (SEQ ID NO: 134) (peptide)
peptide: K([γGlu-C18 diacid])KCNTATCATQRLANFL[Aib]HSSNNFGPILPPTPVGSNTY-NH2
modifications: disulfide 3-8; N-terminus assumed
SMILES: CC[C@H](C)[C@H](NC(=O)[C@@H]1CCCN1C(=O)CNC(=O)[C@H](Cc1ccccc1)NC(=O)[C@H](CC(N)=O)NC(=O)[C@H](CC(N)=O)NC(=O)[C@H](CO)NC(=O)[C@H](CO)NC(=O)[C@H](Cc1c[nH]cn1)NC(=O)C(C)(C)NC(=O)[C@H](CC(C)C)NC(=O)[C@H](Cc1ccccc1)NC(=O)[C@H](CC(N)=O)NC(=O)[C@H](C)NC(=O)[C@H](CC(C)C)NC(=O)[C@H](CCCNC(=N)N)NC(=O)[C@H](CCC(N)=O)NC(=O)[C@@H](NC(=O)[C@H](C)NC(=O)[C@@H]1CSSC[C@H](NC(=O)[C@H](CCCCN)NC(=O)[C@@H](N)CCCCNC(=O)CC[C@H](NC(=O)CCCCCCCCCCCCCCCCC(=O)O)C(=O)O)C(=O)N[C@@H](CC(N)=O)C(=O)N[C@@H]([C@@H](C)O)C(=O)N[C@@H](C)C(=O)N[C@@H]([C@@H](C)O)C(=O)N1)[C@@H](C)O)C(=O)N[C@@H](CC(C)C)C(=O)N1CCC[C@H]1C(=O)N1CCC[C@H]1C(=O)N[C@H](C(=O)N1CCC[C@H]1C(=O)N[C@H](C(=O)NCC(=O)N[C@@H](CO)C(=O)N[C@@H](CC(N)=O)C(=O)N[C@H](C(=O)N[C@@H](Cc1ccc(O)cc1)C(N)=O)[C@@H](C)O)C(C)C)[C@@H](C)O
B6: Peptide 133 (SEQ ID NO: 133) (peptide)
peptide: K([γGlu-C18 diacid])KCNTATCATQRLANFL[Aib]HSSSNFGPILPPTNVGSNTY-NH2
modifications: disulfide 3-8; N-terminus assumed
SMILES: CC[C@H](C)[C@H](NC(=O)[C@@H]1CCCN1C(=O)CNC(=O)[C@H](Cc1ccccc1)NC(=O)[C@H](CC(N)=O)NC(=O)[C@H](CO)NC(=O)[C@H](CO)NC(=O)[C@H](CO)NC(=O)[C@H](Cc1c[nH]cn1)NC(=O)C(C)(C)NC(=O)[C@H](CC(C)C)NC(=O)[C@H](Cc1ccccc1)NC(=O)[C@H](CC(N)=O)NC(=O)[C@H](C)NC(=O)[C@H](CC(C)C)NC(=O)[C@H](CCCNC(=N)N)NC(=O)[C@H](CCC(N)=O)NC(=O)[C@@H](NC(=O)[C@H](C)NC(=O)[C@@H]1CSSC[C@H](NC(=O)[C@H](CCCCN)NC(=O)[C@@H](N)CCCCNC(=O)CC[C@H](NC(=O)CCCCCCCCCCCCCCCCC(=O)O)C(=O)O)C(=O)N[C@@H](CC(N)=O)C(=O)N[C@@H]([C@@H](C)O)C(=O)N[C@@H](C)C(=O)N[C@@H]([C@@H](C)O)C(=O)N1)[C@@H](C)O)C(=O)N[C@@H](CC(C)C)C(=O)N1CCC[C@H]1C(=O)N1CCC[C@H]1C(=O)N[C@H](C(=O)N[C@@H](CC(N)=O)C(=O)N[C@H](C(=O)NCC(=O)N[C@@H](CO)C(=O)N[C@@H](CC(N)=O)C(=O)N[C@H](C(=O)N[C@@H](Cc1ccc(O)cc1)C(N)=O)[C@@H](C)O)C(C)C)[C@@H](C)O

One experiment deals with T1, human calcitonin receptor (human, UniProt P30988 25-474).
T1 sequence (looked up): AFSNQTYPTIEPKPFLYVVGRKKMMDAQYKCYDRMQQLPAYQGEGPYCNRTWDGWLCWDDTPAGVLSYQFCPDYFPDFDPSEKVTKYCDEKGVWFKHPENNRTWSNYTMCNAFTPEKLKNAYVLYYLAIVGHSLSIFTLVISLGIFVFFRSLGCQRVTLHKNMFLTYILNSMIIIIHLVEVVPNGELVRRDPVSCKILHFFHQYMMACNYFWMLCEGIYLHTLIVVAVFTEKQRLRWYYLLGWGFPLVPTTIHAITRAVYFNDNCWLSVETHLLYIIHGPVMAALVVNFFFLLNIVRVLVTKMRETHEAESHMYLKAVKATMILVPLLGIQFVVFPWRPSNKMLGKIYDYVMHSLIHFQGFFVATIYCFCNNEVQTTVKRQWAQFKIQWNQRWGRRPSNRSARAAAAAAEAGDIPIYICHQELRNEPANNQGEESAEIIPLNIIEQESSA
Briefly: cell-based or functional assay.
Consider B1, for which the “EC50 (cAMP production)” value stood at 1.5 nM.
For the molecule B2, the “EC50 (cAMP production)” value stood at 0.101 nM.
Still for that read-out and setting: next, B3: 2.51 nM; B4: 0.345 nM; B5: 2.22 nM.
Still for that read-out and setting: for B6 the value was 2.58 nM.

Another experiment concerns the target T2, human amylin receptor (calcitonin receptor co-expressed with receptor activity modifying protein, RAMP3) (human, UniProt P30988 25-474; O60896 24-148).
T2 sequence (looked up) 1: T1 sequence (looked up)
T2 sequence (looked up) 2: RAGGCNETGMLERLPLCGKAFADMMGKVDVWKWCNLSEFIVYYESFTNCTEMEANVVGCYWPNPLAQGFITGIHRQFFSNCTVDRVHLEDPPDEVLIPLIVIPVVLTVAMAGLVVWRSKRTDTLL
Put plainly: cell-based or functional assay.
Take B1: the “EC50 (cAMP production)” value stood at 0.238 nM and the “Ratio (EC50 hCTR / EC50 hAMYR3)” value came to 6.3.
For B2 the same measures were 0.122 nM and 0.8.
Taken in the same sequence, the figures for B3 were 0.612 nM and 4.1.
Taken in the same sequence, the figures for B4 were 0.296 nM and 1.2.
On to B5, for which the “EC50 (cAMP production)” value amounted to 0.281 nM and the “Ratio (EC50 hCTR / EC50 hAMYR3)” value came to 7.9.
For B6 the same measures were 0.378 nM and 6.8.

The values above are taken from patent US20220204580A1 (AstraZeneca / MedImmune, published 2022).
